Measurements published in the nanobody polyreactivity screen of Harvey et al. (2022).

assay: yeast display, Sf9 membrane polyspecificity reagent, FACS + sequencing; frameworks hold sequencing errors
Method in brief: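 Galactose induction of a Saccharomyces cerevisiae BJ5465 synthetic nanobody display library ran 36–48 hours. The cells were then stained for 1 hour at 4 °C with 10% biotinylated, detergent-solubilized Sf9 membrane reagent, pulled down on streptavidin microbeads and FACS-sorted into low and high (top ~1%) gates on expression and reagent-binding fluorescence. Labels for polyreactivity follow the gate of origin.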

Sequence | polyreactivity (PSR sort gate)
QVQLVESGGGLVQAGGNLRLSCAASGNIFYVYAMGWYRQAPGKERELVAAITRSGGRTYYADSVKGRFTISRDNAKNTVYLQMTSLKPEDTAVYYCAADRGVTRQKMDYWGQGTQVTVSS | low polyreactivity
QVQLVESGGGLVQAGGNLRLSCAASGRIFSSYAMGWYRQAPGKERELVAAITGTGGTTYYADSVKGRFTISRDNAKYTVYLQMNSLKPEDTAVYYCNAERIYRLSRDSAVQYDYWGQGTQVTVSS | low polyreactivity
QVQLVESGGGLVQAGGNLRLSCAASGSIFPRNAMGWYRQAPGKERELVAAISWRGGSTYYADSVKGRFTISRDNAKNTVYLQMNSLKPEDTAVYYCAATTYRSRYDYWGQGTQVTVSS | high polyreactivity
QVQLVESGGGLVQAGGRLGLSCAACGFICDGYAMGWYRQAPGKDRELVAAITGSGGSPYYADSVKGRFTISRDNAKNTVYLQMNSLKPEDTAVYYCNTDYYSVRSGSYWHFPGGDYWGQGTQVTVSS | low polyreactivity
QVQLVESGGGLVQAGGRLLLSCAASGSTFDAYAMGWYRQAPGKERELVAAITNGGSTYYADSVKGRFTISRDNAKNTVYFQMNCLKPEDTAVYYCNAQHRTVWGIFGRFNYWGLGTQVTVSS | low polyreactivity
QVQLVESGGGLVQAGGRLPISCAASGLTFTSNAMGGYIQAPGKERELVASITWYGGSTSYADSVKGRFTISRDYAKNTVDFQMNSLKPEDTAVSYCAADAWRSYGYRAYYYWGQGTQVTVSS | high polyreactivity
QVQLVESGGGLVQAGGRLRFSCAASGSTFVNNAMGWYRQAPGKERELVAAISRRGGRTYYADSEKGRFTISRDNAKNTVYLQMKSLKPEDTAVYYCAADESRYDYWGQGTQVTVSS | high polyreactivity
QVQLVESGGGLVQAGGRLRISCAASGRTFYRYAMGWYRQAPGKERELVAAITYSGGSTNYADSVKGRFTISRDYAKNTVYLQMNSLKPEDTAVYYCATRYNVVRWPYYYWGQGTQVNVSS | high polyreactivity
QVQLVESGGGLVQAGGRLRISFAATGITSGRYAMGGYRQAPGNERELVAAISNSGGSTYYADSVKGRFTISRDNAKNTVYLQMNSLKPEDTAVYYCAARSASSRMDYWGQGTQVTVSS | high polyreactivity
QVQLVESGGGLVQAGGRLRLICAASGFIFGTYAMGWYRQAPGKEREFDAAINWGGGRTYYADSVKGRFTISRDNAKNTVYLQMISLKAEDTAVYYCNIRLIYYRGSYYSLRFDYWGQGTQVTLSS | high polyreactivity
QVQLVESGGGLVQAGGRLRLICAASGSIFVSYALGWYRQAPGKERELVAAISTTGGRTRYADSVKGRFTISRDNAQNTVYLQMNSLKPEDTAVYYCAAVGARKMYYWGQGTQVTVSS | high polyreactivity
QVQLVESGGGLVQAGGRLRLICAASGSTFVINDMGWYRQAPGKERELVASISWSGGDTYYADSVKGRFTISRDNAKNTVYLQMNSLKPEDTAVYYCNRVSPYGSYDYWGQGTQVTVSS | low polyreactivity
QVQLVESGGGLVQAGGRLRLRCDPSGLTSYYAMGWYRQAPGKERELVSRIRSRSGSTYYADSVKGRFTISRDNAKNTVYLQMNSLKPEDTAVYYCNARQLLYAIRDSWGQVTQVTVSS | high polyreactivity
QVQLVESGGGLVQAGGRLRLSCAASARIFYSKVMGWYRQAPGKERELVAAISGRTGGTYYADSVKGRFTISRDNAKNTVYLQMNSLKPEDTAVYYCAARVIDYYGSGPYDYWGQGTQVTVSS | low polyreactivity
QVQLVESGGGLVQAGGRLRLSCAASGAIFDRNVMGWYSQAPGQERELVAAISGSGGRTYYADSVKGRFTISRDNAKNTVYLQMNSLKPEDTAVYYCAARAFRVVPGGDYWGQGTQVTVSS | high polyreactivity
QVQLVESGGGLVQAGGRLRLSCAASGCTSGLNVRGWYRQAPGQERELVAAMSTGGGSTYYADSVKGPFTISRDNAKNTVYLQMTSLQPEDTAVYYCAADQSSVQDFIYNYWAQGTQVTVSS | low polyreactivity

Sequence | polyreactivity (PSR sort gate)
QVQLVESGGGLVQAGGRLRLSCAASGFIFGSYAMGWYRQAPGKERELVAVISSSGGRTYYADSVKGRFTISRDNAKNTVYLQMNSLKPEDTAVYYCNAKSRLFPTYRIYDYWGQGTQVTVSS | high polyreactivity
QVQLVESGGGLVQAGGRLRLSCAASGFIFKQYVMGWYRQAPGKERELVAAISRSGGSTYYADSVKGRFTISRDNAKNTVYLQMNSLKPEDNAVYYCNADNYYPDYDSWGQGTQVTVSS | high polyreactivity
QVQLVESGGGLVQAGGRLRLSCAASGFIFLNYTMGWYRQAPGKEREMVADISNGSDRTYFADSLKGRFTISRENAKNTVYLQMNSLKPEDTAVYYCAKDRDFSSPPTESGFDYWGQGTQVTVSS | low polyreactivity
QVQLVESGGGLVQAGGRLRLSCAASGFIFPLYAMGWYRQAPGKERELVAAIRASSGSTYYADSVKGRFTISRDNAKNSVYLQMNSLKPEDTAVYYCNARQYVWYPYEYWGQGTQVTVSS | high polyreactivity
QVQLVESGGGLVQAGGRLRLSCAASGFIFWTYAMGWYRQAPGKERELVARISWSGGSTYYADSVKGRFTISRDTAKNTVYLQMNSLKPEDTAVYYCARLATLYESIEYDYWGQGTQVTVSS | low polyreactivity
QVQLVESGGGLVQAGGRLRLSCAASGFIHYAMGWYRQAPGNERELVAAIRHSGGSTYYADSVKGRFTISRDNANNTVYIHMNSLKPEDTAVYYCAASRSGVGYRMQYWGQGTQVTVSS | low polyreactivity
QVQLVESGGGLVQAGGRLRLSCAASGFKYAMGWYRQGPGKDRELVAAISSGGITSYADSVKGRFTISRDNAKNTVYLQMNSLKPEDTAVYYCNARLRHSQYAYYYWGQGTQVTVSS | high polyreactivity
QVQLVESGGGLVQAGGRLRLSCAASGFTCGVYDMGWYRQAPGKERALVADIDFTGGDTYYADSVKGRFTISRDNAKNTVYLQMIRLKPEDTAVYYCAARSWGVIYDYFYLGLDYWGQGTQVTVSS | low polyreactivity
QVQLVESGGGLVQAGGRLRLSCAASGFTFGDNAMGWYRQAPGKERELVAAITSSGSTNYADSVKGRFTISRDNAKNTVYLQMNSLKPEDTAVYYCNAEDSVDAPVYKDLGSEYDSWGQGTQVTVSS | low polyreactivity
QVQLVESGGGLVQAGGRLRLSCAASGFTFHNNVMGWYRQAPGKERELVATISKSGGSTYYADSVKGRFTISRDHAKNTVYLQMNSLKPEDTAVYYCARRYRDYGRYGYWGQGTQVTVSS | high polyreactivity
QVQLVESGGGLVQAGGRLRLSCAASGGIFRRNAMGWYRPAPGKERELVAAISRSGGRTYYADSVKGRFTISRDNAKTSVYLQMNSLKPEDTAVYYCNADYGTRAGVDYWGQGTQVTVSS | low polyreactivity
QVQLVESGGGLVQAGGRLRLSCAASGGIFSAYAMGWYRQAPGTERELVAAISSGGSTKYADSVKGRVTISRDNAQNTVYLQMNSLKPEDTAVYYCAVLYIRWYTYEYWGQGAQVTVSS | high polyreactivity
QVQLVESGGGLVQAGGRLRLSCAASGGTFYLIAMGWYIQAPGKERELVAAISGSGTSTYYADSVKGRFTISRDNAKNTVYLQMNSLKPEDTAVYYCAADGTYFYIYLGDRFDYWGQGTQVTVSS | low polyreactivity
QVQLVESGGGLVQAGGRLRLSCAASGIIFPRYAMGWYRQAPGKERELVAAISGSGVGTYYADSVKGRFTISRDYAKNTVYIQMNSLKPEDTAVYSCATRYQWGGPYYRYDYWGQGTQVTVSS | high polyreactivity
QVQLVESGGGLVQAGGRLRLSCAASGIIFYVYTMGWSRQAPGKERELVAAISGSGGSTTYADSVKGRFTISRDNAKNTVYLQMNSLKPEDTAVYYCNAKKWFYRWWKFSEFDYWGQGTQVTVSS | high polyreactivity
